Experimental data as given in US20100278801A1.
Several values for one entry are separate records, joined by “and”; a condition that tells them apart may be missing. Equal entries are not always repeated. Where two headings read alike, the source gives them in different places.

What was measured:
TGF-α [1] = target: TGF-α (UniProt P01135); settings: Fc fusion
Target sequence in this assay (P01135 40-89): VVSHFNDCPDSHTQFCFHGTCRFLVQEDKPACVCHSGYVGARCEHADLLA

NRG1-β [2] = target: NRG1-β (UniProt Q02297); settings: Fc fusion
Target sequence in this assay (Q02297 other isoform, or with tags, fused parts or gaps): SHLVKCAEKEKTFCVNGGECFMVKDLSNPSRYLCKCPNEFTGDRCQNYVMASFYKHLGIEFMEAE

HB-EGF = HB-EGF (UniProt Q99075); experiment: biotin-ligand binding; settings: Fc fusion
TGF-α [3] = target: TGF-α (UniProt P01135); experiment: biotin-ligand binding; settings: Fc fusion
Target sequence in this assay (P01135 40-89): as the sequence (P01135 40-89) above

TGF-α [4] = target: TGF-α (UniProt P01135); experiment: 125I-TGF-a saturation binding, heterodimer immobilised on anti-Fc coated plate; not saturated at 100 nM
Target sequence in this assay (P01135 40-89 limits assumed): as the sequence (P01135 40-89) above

NRG1-β [5] = target: NRG1-β (UniProt Q02297); experiment: 125I-NRG1-β saturation binding, heterodimer immobilised on anti-Fc coated plate
Target sequence in this assay (Q02297 other isoform, or with tags, fused parts or gaps limits assumed): as the sequence (Q02297 other isoform, or with tags, fused parts or gaps) above

EGF [6] = target: EGF (UniProt P01133); experiment: Eu-EGF competition; settings: Fc fusion
EGF [7] = target: EGF (UniProt P01133); experiment: Eu-ligand saturation binding; settings: Fc fusion

Chain of EGF (P01133 971-1023): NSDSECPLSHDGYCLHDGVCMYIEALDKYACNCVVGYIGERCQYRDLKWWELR
Chain of HB-EGF (Q99075 63-148): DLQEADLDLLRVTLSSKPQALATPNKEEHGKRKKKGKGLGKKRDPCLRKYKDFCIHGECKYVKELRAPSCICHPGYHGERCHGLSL

For “EGFRT15S:Fc homodimer (from UniProt P00533 25-645)”, the Kd (TGF-α [1]) was 1.7 nM.

In the case of HER3:Fc (from UniProt P21860 20-643), the Kd (NRG1-β [2]) is reported as 17.1 nM and 17 nM.

“RB222 (from UniProt P00533 25-645; P21860 20-643)” was tested, and the Kd (HB-EGF) was 1.58 nM and the Kd (TGF-α [3]) was 42.6 nM.

With “RB222 (from UniProt P00533 25-645; P21860 20-643) (Fc fusion)” the Kd (TGF-α [4]) was > 30 nM and the Kd (NRG1-β [5]) was 1.6 nM.

For “RB242 (from UniProt P00533 25-645; P21860 20-643)”, the Ki (EGF [6]) was 0.89 nM and the Kd (EGF [7]) was 0.77 nM.
